{
  "source": "patent US20220127355A1",
  "about": "(INTEGRAL MOLECULAR, published 2022)",
  "binders": {"B1": {"name": "IM180 w/ F10h cLC (antibody, V domains shown)", "VH": "EVQLLESGGGLVQPGGSLRLSCAASGFDFSSYAMNWVRQAPGKGLEWVAGIGSTGSSTGYADSVKGRFTISRDNSKNTLYLQMNSLRAEDTAVYYCAKSVGNGNSWSGYIATSIDAWGQGTLVTVSS", "VL": "SYELTQPPSVSVSPGQTARITCSGGYNGHYGWYQQKPGQAPVLVIYSNNQRPSGIPERFSGSSSGTTVTLTISGVQAEDEADYYCGGYDSSAGIFGGGTKLTVL", "notes": "IM180 heavy chain paired with the common light chain F10h"}, "B2": {"name": "IM180 (antibody, V domains shown)", "VH": "B1 VH", "VL": "SYELTQPPSVSVSPGQTARITCSGGSSGYGWYQQKPGQAPVLVIYSNDKRPSGIPERFSGSSSGTTVTLTISGVQAEDEADYYCGSTDNSYVGIFGGGTKLTVL", "notes": "Produced with its natural light chain"}, "B3": {"name": "IM271 (antibody, V domains shown)", "VH": "B1 VH with D28T, N35S, G52S, T54S, S56R, S57Y", "VL": "SYELTQPPSVSVSPGQTARITCSGGSGSYGWYQQKPGQAPVLVIYGTNKRPSGIPERFSGSSSGTTVTLTISGVQAEDEADYYCGSADSSTNAGIFGGGTKLTVL"}, "B4": {"name": "IM271 w/ F10h cLC (antibody, V domains shown)", "VH": "B1 VH with D28T, N35S, G52S, T54S, S56R, S57Y", "VL": "B1 VL", "notes": "IM271 heavy chain paired with the common light chain F10h"}, "B5": {"name": "IM172 (antibody, V domains shown)", "VH": "AVTLDESGGGLQTPGGALSLVCKGSGFSISSYTMQWVRQAPGKGLEWVAGIYSGSRTYYGAAVQGRATISRDNGQSTVRLQLNNLRAEDTGTYYCAKSSYCTAWTGCDVYAGGSIDAWGHGTEVIVSS", "VL": "ALTQPSSVSATPGGTVEITCSGDSSDDGSYYYGWYQQKSPGSAPVTVIYSNDKRPSSIPSRFSGSASGSTATLTITGVQADDEAVYFCGSYDSSTGIFGAGTTLTVL", "notes": "Detected with anti-human IgG Fc secondary"}, "B6": {"name": "IM136 (antibody, V domains shown)", "VH": "AVTLDESGGGLQTPGGVLSLVCKASGFSFSSYDMGWVRQAPGKGLEWVASIYSSASSTYYAPAVKGRATITRDNGQSTVRLQLNNLRAEDTGTYYCAKAAGRTYRGWATYIADSIDAWGHGTEVIVSS", "VL": "ALTQPSSVSANPGESVEITCSGDSSWYGYGWYQQKSPGSAPVTLIYESGKRPSDIPSRFSGSTSGSTATLTITGVQADDEAVYYCGSADSNSIGIFGAGTTLTVL", "notes": "as for B5"}, "B7": {"name": "IM-35-N1F09-1HA (antibody, V domains shown)", "VH": "EVQLLESGGGLVQPGGSLRLSCAASGFTFSSYGMSWVRQAPGKGLEWVAGIGSSGIYTHYADSVKGRFTISRDNSKNTLYLQMNSLRAEDTAVYYCAKSPGDSDWCGWAGYGIYSCRVAGFIDAWGQGTLVTVSS", "VL": "B1 VL with S47G, N48T, Q50K"}, "B8": {"name": "IM-35-N2H07-1HA (antibody, V domains shown)", "VH": "EVQLLESGGGLVQPGGSLRLSCAASGFTFSGYAMSWVRQAPGKGLEWVAGIYSSGSYTFYADSVKGRFTISRDNSKNTLYLQMNSLRAEDTAVYYCAKGTGYCDWSGWCYSGAANIDAWGQGTLVTVSS", "VL": "SYELTQPPSVSVSPGQTARITCSGGSGSYGYYGWYQQKPGQAPVLVIYGTNKRPSGIPERFSGSSSGTTVTLTISGVQAEDEADYYCGSEDSSSGAGIFGGGTKLTVL"}, "B9": {"name": "IM-271-1HBF (antibody, V domains shown)", "VH": "B1 VH with D28T, G52S, T54S, S56R, S57Y, N102S, N104V, I110V", "VL": "B3 VL with G24A, S28L", "notes": "also called CH-HAMF5-1HBF"}, "B10": {"name": "IM-271-1HAQ (antibody, V domains shown)", "VH": "B1 VH with D28T, N35S, G52S, T54S, S56R, S57Y, I110V", "VL": "B3 VL", "notes": "also called CH-HAMF5-1HAQ"}, "B11": {"name": "IM-271-1HHP (antibody, V domains shown)", "VH": "B1 VH with D28T, G52S, T54S, S56R, S57Y, N102S, N104V, I110V, I114L, A116V", "VL": "B3 VL with N48Y", "notes": "also called CH-HAMF5-1HHP"}, "B12": {"name": "IM-271-1HFJ (antibody, V domains shown)", "VH": "B1 VH with D28T, G52S, T54S, S56R, S57Y, V100M, N102S, N104V, I110V, A116V", "VL": "B3 VL with G24A, S28L", "notes": "also called CH-HAMF5-1HFJ"}, "B13": {"name": "IM-271-1HFB (antibody, V domains shown)", "VH": "B1 VH with D28T, G52S, T54S, S56R, S57Y, V100M, N102S, N104V, I110V", "VL": "B3 VL with N48Y", "notes": "also called CH-HAMF5-1HFB"}, "B14": {"name": "IM-271-1HGT (antibody, V domains shown)", "VH": "B1 VH with D28T, G52S, T54S, S56R, S57Y, N102S, N104V, I110V, I114L, A116V", "VL": "B3 VL with G24A, S28L, A87N, S89A", "notes": "also called CH-HAMF5-1HGT"}, "B15": {"name": "IM-271-1HBG (antibody, V domains shown)", "VH": "B1 VH with D28T, G52S, T54S, S56R, S57Y, V100M, N102S, N104V, I110V", "VL": "B3 VL with G24A, S28L", "notes": "also called CH-HAMF5-1HBG"}, "B16": {"name": "IM-271-1HHR (antibody, V domains shown)", "VH": "EVQLLESGGGLVQPGGSLRLSCAASGFTFSSYAMNWVRQAPGKGLEWVAGISSSGRYTGYADSVKGRFTISRDNSKNTLYLQMNSLRAEDTAVYYCAKSMGSGVSWSGYVATSLDVWGQGTLVTVSS", "VL": "B3 VL with N48Y", "notes": "also called CH-HAMF5-1HHR"}, "B17": {"name": "IM-271-1HEP (antibody, V domains shown)", "VH": "B16 VH with M100V, V116A", "VL": "B3 VL with G24A, S28L", "notes": "T0003 prints the label CH-HAMF5-MEP; Tied by the suffix only; also called CH-HAMF5-1HEP; CH-HAMF5-MEP"}},
  "note": "Residue numbers refer to the chain shown, from its start.",
  "data": [
    {"biological_target": "T1, Claudin 6 (human) (human, UniProt P56747 1-220)", "T1 construct": "Expressed on transfected HEK-293T cells or naturally on PA-1 cells for flow cytometry; For the Octet KD values it was the intact protein embedded in virus-like particles (lipoparticles); also called hsCLDN6; CLDN6", "T1 chain": "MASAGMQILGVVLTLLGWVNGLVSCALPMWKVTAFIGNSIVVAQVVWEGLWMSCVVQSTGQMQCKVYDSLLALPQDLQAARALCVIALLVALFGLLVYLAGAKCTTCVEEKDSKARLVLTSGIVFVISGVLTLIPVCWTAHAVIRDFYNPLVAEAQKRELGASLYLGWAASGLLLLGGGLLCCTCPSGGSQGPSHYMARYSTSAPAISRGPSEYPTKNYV", "test": "flow cytometry, 66 nM MAb on HEK-293T cells expressing claudin6", "procedure": "Expression and Binding of claudin6 MAbs. Claudin 6 MAbs produced using their natural light chain, or produced using a different light chain. Yield represents the preparation of the purified MAb and ug of protein resulting from the preparation. Binding represents 66 nM of the indicated MAb binding to HEK-293T cells expressing the target claudin6. The Controls represents the same MAbs staining HEK-293T cells not transfectedwith claudin6. Staining was detected by flow cytometry (geometric mean fluorescence). N/A, not available.", "values": [
      {"binder": "B1", "Binding (geometric mean fluorescence)": "10100 geometric mean fluorescence"},
      {"binder": "B2", "Binding (geometric mean fluorescence)": "46900 geometric mean fluorescence"},
      {"binder": "B3", "Binding (geometric mean fluorescence)": "63000 geometric mean fluorescence"},
      {"binder": "B4", "Binding (geometric mean fluorescence)": "160000 geometric mean fluorescence"}
    ]},
    {"biological_target": "T2, Claudin 9 (UniProt O95484 1-217)", "T2 construct": "Octet KD values: intact claudin protein embedded in virus-like particles (lipoparticles); also called CLDN9", "T2 sequence (looked up)": "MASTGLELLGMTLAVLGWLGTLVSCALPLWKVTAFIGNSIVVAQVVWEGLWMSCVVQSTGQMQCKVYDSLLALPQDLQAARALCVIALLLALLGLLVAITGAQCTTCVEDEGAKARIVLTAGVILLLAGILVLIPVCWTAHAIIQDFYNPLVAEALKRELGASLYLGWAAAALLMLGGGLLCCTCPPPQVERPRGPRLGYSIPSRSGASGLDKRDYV", "test": "biosensor (Forte Octet), intact claudin in virus-like particles (lipoparticles)", "procedure": "Affinity of various antibodies against CLDN6 as compared to CLDN9, CLDN3, and CLDN4 was measured using a biosensor. Biosensor affinity measurement of the various antibodies against the proteins was determined using a Forte Octet, which was used for biosensor measurements, using intact claudin proteins embedded in virus-like particles (lipoparticles). The KD for different antibodies is shown below.", "units": {"Kd": "nM"}, "values": [
      {"binder": "B5", "Kd": 81},
      {"binder": "B6", "Kd": 386}
    ]},
    {"biological_target": "T3, Claudin 3 (UniProt O15551 1-220)", "T3 construct": "also called CLDN3", "T3 sequence (looked up)": "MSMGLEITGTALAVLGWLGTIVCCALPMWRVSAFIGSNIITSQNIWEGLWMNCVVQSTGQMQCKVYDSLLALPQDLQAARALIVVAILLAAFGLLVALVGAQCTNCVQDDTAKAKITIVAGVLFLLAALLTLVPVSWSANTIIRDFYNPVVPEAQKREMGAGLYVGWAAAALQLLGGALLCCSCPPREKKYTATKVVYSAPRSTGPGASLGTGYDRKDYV", "test": "flow cytometry, HEK-293T cells transiently transfected with the indicated claudin; pUC19 = empty vector control", "procedure": "(§1) FIG. 2 illustrates the results of a binding assay showing that Claudin 6 MAbs bind to human Claudin 6 preferentially over other Claudin proteins. Human embryonic kidney 293T (HEK-293T) cells were transiently transfected with DNA for the indicated Claudin protein or empty vector along with GFP (pUC) for 22 hours.", "values": [
      {"binder": "B6", "binding result": "no binding (tested: log [mAb] about -7.2 M)"}
    ]},
    {"biological_target": "T4, Claudin 4 (UniProt O14493 1-209)", "T4 construct": "also called CLDN4", "T4 sequence (looked up)": "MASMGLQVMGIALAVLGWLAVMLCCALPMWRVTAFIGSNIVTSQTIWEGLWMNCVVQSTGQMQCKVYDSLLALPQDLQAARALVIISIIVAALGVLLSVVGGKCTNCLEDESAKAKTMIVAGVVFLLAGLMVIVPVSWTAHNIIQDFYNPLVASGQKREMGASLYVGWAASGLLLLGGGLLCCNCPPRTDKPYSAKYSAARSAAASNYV", "test": "flow cytometry, HEK-293T cells transiently transfected with the indicated claudin; pUC19 = empty vector control", "procedure": "as §1", "values": [
      {"binder": "B6", "binding result": "no binding (tested: log [mAb] about -7.2 M)"}
    ]},
    {"biological_target": "T1, Claudin 6 (human)", "test": "flow cytometry, HEK-293T cells transfected with plasmids for the indicated proteins; pUC = empty vector control", "units": {"EC50 (read off the curve)": "µg/mL"}, "values": [
      {"binder": "B3", "EC50 (read off the curve)": "~0.4"}
    ]},
    {"biological_target": "T1, Claudin 6 (human)", "test": "binding assay of the 13th table, method not described", "units": {"EC50": "nM"}, "values": [
      {"binder": "B7", "EC50": "< 4"},
      {"binder": "B8", "EC50": "< 4"},
      {"binder": "B9", "EC50": "< 4"},
      {"binder": "B10", "EC50": "< 4"},
      {"binder": "B11", "EC50": "< 4"},
      {"binder": "B12", "EC50": "< 4"},
      {"binder": "B13", "EC50": "< 4"},
      {"binder": "B14", "EC50": "< 4"},
      {"binder": "B15", "EC50": "< 4"},
      {"binder": "B16", "EC50": "< 4"},
      {"binder": "B17", "EC50": "< 4"},
      {"binder": "B3", "EC50": "< 4"}
    ]}
  ]
}
